Data taken from patent US20210309718A1 (THERACHON, published 2021).
One block for each binder: values may come before it.

B2: sFGFR3_Del4-D3 (receptor)
chain: ESLGTEQRVVGRAAEVPGPEPGQQEQLVFGSGDAVELSCPPPGGGPMGPTVWVKDGTGLVPSERVLVGPQRLQVLNASHEDSGAYSCRQRLTQRVLCHFSVRVTDAPSSGDDEDGEDEAEDTGVDTGAPYWTRPERMDKKLLAVPAANTVRFRCPAAGNPTPSISWLKNGREFRGEHRIGGIKLRHQQWSLVMESVVPSDRGNYTCVVENKFGSIRQTYTLDVLERSPHRPILQAGLPANQTAVLGSDVEFHCKVYSDAQPHIQWLKHVEVNGSKVGPDGTPYVTVLKTAGANTTDKELEVLSLHNVTFEDAGEYTCLAGNSIGFSHHSAWLVVLPVSLESNASMSSNT
notes: Secreted form without signal peptide; also called sFGFR3_Del4 with extended Ig-like C2-type domain 3

Experiments:
[1] = target: B2; assay: SPR (Biacore T200), immobilised sFGFR3_Del4-D3, FGF as analyte, 2:1 (conformational change) model, kd1
[2] = target: B2; assay: SPR (Biacore T200), immobilised sFGFR3_Del4-D3, kinetic fit, 2:1 model
[3] = target: B2; assay: SPR (Biacore T200), immobilised sFGFR3_Del4-D3, FGF as analyte, 2:1 (conformational change) model, kd2
[4] = target: B2; assay: SPR (Biacore T200), immobilised sFGFR3_Del4-D3, FGF as analyte, 2:1 (conformational change) model, ka1
[5] = target: T1, human FGF9 (human, UniProt P31371 4-208); assay: SPR (Biacore T200), immobilised sFGFR3_Del4-D3, steady state
[6] = target: T1, human FGF9; assay: SPR (Biacore T200), immobilised sFGFR3_Del4-D3, FGF as analyte, 2:1 (conformational change) model, kd1
[7] = target: T1, human FGF9; assay: SPR (Biacore T200), immobilised sFGFR3_Del4-D3, kinetic fit, 2:1 model
[8] = target: T1, human FGF9; assay: SPR (Biacore T200), immobilised sFGFR3_Del4-D3, FGF as analyte, 2:1 (conformational change) model, ka1
[9] = target: B2; assay: SPR (Biacore T200), immobilised sFGFR3_Del4-D3, steady state
[10] = target: B2; assay: SPR (Biacore T200), immobilised sFGFR3_Del4-D3, FGF as analyte, 1:1 model, ka1
[11] = target: B2; assay: SPR (Biacore T200), immobilised sFGFR3_Del4-D3, kinetic fit, 1:1 model

koff [1]: 0.0055 s⁻¹
Kd [2]: 28000 nM
kd2 [3]: 0.0014 s⁻¹
kon [4]: 258 M⁻¹ s⁻¹
B1: human FGF21 (ligand)
chain: HPIPDSSPLLQFGGQVRQRYLYTDDAQQTEAHLEIREDGTVGGAADQSPESLLQLKALKPGVIQILGVKTSRFLCQRPDGALYGSLHFDPEACSFRELLLEDGYNVYQSEAHGLPLHLPGNKSPHRDPAPRGPARFLPLPGLPPALPEPPGILAPQPPDVGSSDPLSMVGPSQGRSPSYAS
notes: also called hFGF21; fibroblast growth factor 21

Binder: B2
Kd [5]: 3.6 nM
koff [6]: 0.026 s⁻¹
Kd [7]: 1.8 nM
kon [8]: 2.3e+06 M⁻¹ s⁻¹

Kd [9]: 6.4 nM
kon [10]: 200000 M⁻¹ s⁻¹
Kd [11]: 4.5 nM
B3: human FGF18 (ligand)
chain: EENVDFRIHVENQTRARDDVSRKQLRLYQLYSRTSGKHIQVLGRRISARGEDGDKYAQLLVETDTFGSQVRIKGKETEFYLCMNRKGKLVGKPDGTSKECVFIEKVLENNYTALMSAKYSGWYVGFTKKGRPRKGPKTRENQQDVHFMKRYPKGQPELQKPFKYTTVTKRSRRIRPTHPA
notes: also called hFGF18; fibroblast growth factor 18
